What all share (assay): EMSA
Data set [1] addresses FD-C_T282E;14-3-3nu (GRF7);TFL1 (Arabidopsis thaliana;Arabidopsis …, UniProt Q84JK2;Q96300;P93003 203-285;1-265;1-177, T282E||).
Data set [2] concerns the target T1, FD-C_T282E;14-3-3nu (GRF7) (Arabidopsis thaliana;Arabidopsis …, UniProt Q84JK2;Q96300 203-285;1-265, T282E|).
T1 sequence 1: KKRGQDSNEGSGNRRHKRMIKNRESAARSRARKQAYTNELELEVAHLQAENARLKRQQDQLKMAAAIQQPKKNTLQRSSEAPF
T1 sequence 2: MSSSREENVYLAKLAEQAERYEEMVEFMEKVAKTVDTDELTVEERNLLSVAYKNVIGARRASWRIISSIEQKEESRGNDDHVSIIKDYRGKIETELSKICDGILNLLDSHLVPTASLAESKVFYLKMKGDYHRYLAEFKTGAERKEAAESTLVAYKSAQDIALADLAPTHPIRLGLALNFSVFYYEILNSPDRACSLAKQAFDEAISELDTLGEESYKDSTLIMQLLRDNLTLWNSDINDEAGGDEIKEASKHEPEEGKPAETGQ

The target of data set [3] is T2, FD-C_T282E;14-3-3nu (GRF7);FT (Arabidopsis thaliana;Arabidopsis …, UniProt Q84JK2;Q96300;Q9SXZ2 203-285;1-265;1-175, T282E||).
T2 sequence (Q9SXZ2 whole entry, stated change not applied, one chain of several): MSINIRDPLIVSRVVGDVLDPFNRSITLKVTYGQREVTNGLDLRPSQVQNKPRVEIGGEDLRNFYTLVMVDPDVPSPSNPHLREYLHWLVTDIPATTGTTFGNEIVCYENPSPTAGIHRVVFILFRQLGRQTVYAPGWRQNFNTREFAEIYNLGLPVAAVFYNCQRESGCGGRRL
The target of another data set is T3, FD-C (Arabidopsis thaliana, UniProt Q84JK2 203-285).
T3 sequence: T1 sequence 1 with E80T

Data set [4] concerns the target T4, FD full-length (Arabidopsis thaliana, UniProt Q84JK2 1-285).
T4 sequence: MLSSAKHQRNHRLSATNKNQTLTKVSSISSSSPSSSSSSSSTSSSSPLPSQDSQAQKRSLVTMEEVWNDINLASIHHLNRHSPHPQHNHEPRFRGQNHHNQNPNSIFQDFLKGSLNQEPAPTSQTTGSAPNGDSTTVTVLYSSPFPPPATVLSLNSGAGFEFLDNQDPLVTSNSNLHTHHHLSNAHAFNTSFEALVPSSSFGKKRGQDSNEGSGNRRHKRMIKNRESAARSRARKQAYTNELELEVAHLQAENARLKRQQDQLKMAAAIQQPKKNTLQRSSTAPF

The target of data set [5] is T4, FD full-length. This is another data set of the same source.
Another data set has as its target T5, FD T282E full-length (Arabidopsis thaliana, UniProt Q84JK2 1-285, T282E).
T5 sequence: T4 sequence with T282E

Data set [6] addresses T2, FD-C_T282E;14-3-3nu (GRF7);FT. This is another data set of the same source.
The target of data set [7] is FD-C;14-3-3nu (GRF7);TFL1 (Arabidopsis thaliana;Arabidopsis …, UniProt Q84JK2;Q96300;P93003 203-285;1-265;1-177, ||).
Sequence of FD-C;14-3-3nu (GRF7);TFL1 (P93003 whole entry, one chain of several): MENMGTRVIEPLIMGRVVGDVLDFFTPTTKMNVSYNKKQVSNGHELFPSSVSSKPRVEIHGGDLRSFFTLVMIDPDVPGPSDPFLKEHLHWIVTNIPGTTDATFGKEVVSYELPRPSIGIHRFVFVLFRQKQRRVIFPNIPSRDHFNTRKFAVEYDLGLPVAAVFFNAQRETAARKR
In another data set the target is T6, FD-C_T282E (Arabidopsis thaliana, UniProt Q84JK2 203-285, T282E).
T6 sequence: T1 sequence 1

Where a chain is given by its changes, count along the chain named. Like-named read-outs stand apart in the source and are kept apart here.

Sequence of FD-C_T282E;14-3-3nu (GRF7);TFL1 (P93003 whole entry, stated change not applied, one chain of several): as the sequence (P93003 whole entry, one chain of several) above

B1: AP1 promoter site 2 (dsDNA)
DNA 1: TACCAATGAGAAGTCGACACGCAAATCCTA
DNA 2: TAGGATTTGCGTGTCGACTTCTCATTGGTA
Turning to B1, the binding result in data set [1], in data set [2] and in data set [3] was “binds” throughout.

B2: SEP3 G-box to C-box (GACGTC) (dsDNA)
DNA 1: CGAGATGTCGAGACGTCTCCAAACTCAT
DNA 2: ATGAGTTTGGAGACGTCTCGACATCTCG
For the molecule B2, the binding result in the data set with FD-C and in the data set with FD full-length [4] was “no binding” in each case.

B3: SEP3 G-box CG to GC (CAGCTG) (dsDNA)
DNA 1: CGAGATGTCGACAGCTGTCCAAACTCAT
DNA 2: ATGAGTTTGGACAGCTGTCGACATCTCG
On to B3, for which the binding result with FD-C and with FD full-length [4] was “binds” in each case.

B4: SEP3 promoter G-box probe (dsDNA)
DNA 1: CGAGATGTCGACACGTGTCCAAACTCAT
DNA 2: ATGAGTTTGGACACGTGTCGACATCTCG
Consider B4, for which the binding result (with FD full-length [5]; in the data set with FD T282E full-length; in data set [1]; in data set [6]; in data set [7]; in the data set with FD-C_T282E) was “binds” each time. The binding result in [2] is on record as “binds”.

B5: SEP3 G-box CG to TA (CATATG) (dsDNA)
DNA 1: CGAGATGTCGACATATGTCCAAACTCAT
DNA 2: ATGAGTTTGGACATATGTCGACATCTCG
On to B5, for which the binding result in the data set with FD-C and with FD full-length [4] was “no binding” throughout.
